Values quoted from earlier work, collected in PMC11815838.

Molecular target: Her2 (ErbB2) ectodomain (UniProt P04626)
Experiment: SPR (surface plasmon resonance)
Details: not stated (pH 7.4 and pH 5.0 running conditions; buffers given only in ref 2)

| Substance | KD (pH 5.0) | KD (pH 7.4) |
| --- | --- | --- |
| bH1 Fab variant P1 (H-N28H) H-N28H | 16 nM | 3.5 nM |
| bH1 Fab variant P4 (H-Y56H) H-Y56H |  | 170 nM |
| bH1 Fab variant P8 (L-S30bH) L-S30bH | 9.9 nM | 3.4 nM |

Other lines, results leading:

| KD (pH 5.0) | KD (pH 7.4) | Substance |
| --- | --- | --- |
| 1200 nM | 120 nM | bH1 Fab variant P2 (H-Y33H) H-Y33H |
| 98 nM | 310 nM | bH1 Fab variant P5 (H-R58H) H-R58H |
|  | 10 nM | bH1 Fab variant P6 (H-Y100aH) H-Y100aH |
| 17 nM | 5.7 nM | bH1 Fab variant P7 (L-R30aH) L-R30aH |
